According to the supplement of paper PMC10065799, “High-throughput profiling of sequence recognition by tyrosine kinases and SH2 domains using bacterial peptide display” (eLife, 2023):

Key:
c-Src SH2 = assay: SH2 binding enrichment of the phosphorylated peptide, bacterial display (enrichment ratio); higher = better substrate or ligand; peptides without Tyr show the background
Grb2 SH2 = Grb2 SH2 (UniProt P62993); assay: as above
SHP2-C SH2 = assay: as above
Fyn = Fyn (UniProt P06241); assay: phosphorylation enrichment, bacterial display (enrichment ratio); higher = better substrate or ligand; peptides without Tyr show the background
Chain of Fyn (P06241 whole entry, looked up): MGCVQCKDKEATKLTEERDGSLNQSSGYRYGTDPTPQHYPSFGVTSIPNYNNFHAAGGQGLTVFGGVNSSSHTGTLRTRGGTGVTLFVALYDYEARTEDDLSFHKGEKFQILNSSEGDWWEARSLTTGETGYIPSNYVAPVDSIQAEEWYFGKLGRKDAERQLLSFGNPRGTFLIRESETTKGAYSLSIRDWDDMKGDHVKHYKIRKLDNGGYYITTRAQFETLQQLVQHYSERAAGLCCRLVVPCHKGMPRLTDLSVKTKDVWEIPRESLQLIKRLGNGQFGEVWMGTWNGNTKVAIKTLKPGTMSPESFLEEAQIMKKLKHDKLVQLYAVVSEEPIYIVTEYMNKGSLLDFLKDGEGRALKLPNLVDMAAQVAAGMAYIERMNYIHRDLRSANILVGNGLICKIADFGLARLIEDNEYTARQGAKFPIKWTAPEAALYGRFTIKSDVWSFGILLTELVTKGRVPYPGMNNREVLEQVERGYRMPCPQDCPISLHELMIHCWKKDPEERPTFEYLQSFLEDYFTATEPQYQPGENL

EPHB1 = EPHB1 (UniProt P54762); assay: as above
Chain of EPHB1 (P54762 whole entry, looked up): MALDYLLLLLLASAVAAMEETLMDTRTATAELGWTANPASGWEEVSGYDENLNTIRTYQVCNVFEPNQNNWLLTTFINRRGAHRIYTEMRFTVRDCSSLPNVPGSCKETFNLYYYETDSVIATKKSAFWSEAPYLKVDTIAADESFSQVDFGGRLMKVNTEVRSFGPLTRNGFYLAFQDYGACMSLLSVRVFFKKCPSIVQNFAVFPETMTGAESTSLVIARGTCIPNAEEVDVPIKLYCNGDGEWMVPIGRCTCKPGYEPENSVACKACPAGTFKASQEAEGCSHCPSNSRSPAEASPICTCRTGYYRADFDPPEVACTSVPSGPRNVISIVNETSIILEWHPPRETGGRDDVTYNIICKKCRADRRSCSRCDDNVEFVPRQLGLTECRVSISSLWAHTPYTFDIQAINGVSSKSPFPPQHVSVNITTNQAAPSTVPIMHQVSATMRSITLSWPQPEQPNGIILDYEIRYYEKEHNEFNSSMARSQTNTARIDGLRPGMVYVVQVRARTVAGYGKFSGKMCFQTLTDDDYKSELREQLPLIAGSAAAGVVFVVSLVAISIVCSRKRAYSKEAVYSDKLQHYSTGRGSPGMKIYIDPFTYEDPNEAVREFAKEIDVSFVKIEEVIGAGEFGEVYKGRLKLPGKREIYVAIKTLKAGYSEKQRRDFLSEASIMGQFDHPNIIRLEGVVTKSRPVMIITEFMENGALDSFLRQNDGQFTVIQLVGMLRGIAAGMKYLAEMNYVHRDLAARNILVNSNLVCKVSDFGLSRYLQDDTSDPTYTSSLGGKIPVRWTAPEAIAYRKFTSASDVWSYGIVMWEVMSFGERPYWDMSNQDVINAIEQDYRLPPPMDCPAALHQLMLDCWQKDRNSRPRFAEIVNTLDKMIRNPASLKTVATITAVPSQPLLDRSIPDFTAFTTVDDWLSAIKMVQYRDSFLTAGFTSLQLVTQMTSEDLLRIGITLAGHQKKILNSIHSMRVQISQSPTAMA

c-Src = assay: as above
Fes = Fes (UniProt P07332); assay: as above
Chain of Fes (P07332 whole entry, looked up): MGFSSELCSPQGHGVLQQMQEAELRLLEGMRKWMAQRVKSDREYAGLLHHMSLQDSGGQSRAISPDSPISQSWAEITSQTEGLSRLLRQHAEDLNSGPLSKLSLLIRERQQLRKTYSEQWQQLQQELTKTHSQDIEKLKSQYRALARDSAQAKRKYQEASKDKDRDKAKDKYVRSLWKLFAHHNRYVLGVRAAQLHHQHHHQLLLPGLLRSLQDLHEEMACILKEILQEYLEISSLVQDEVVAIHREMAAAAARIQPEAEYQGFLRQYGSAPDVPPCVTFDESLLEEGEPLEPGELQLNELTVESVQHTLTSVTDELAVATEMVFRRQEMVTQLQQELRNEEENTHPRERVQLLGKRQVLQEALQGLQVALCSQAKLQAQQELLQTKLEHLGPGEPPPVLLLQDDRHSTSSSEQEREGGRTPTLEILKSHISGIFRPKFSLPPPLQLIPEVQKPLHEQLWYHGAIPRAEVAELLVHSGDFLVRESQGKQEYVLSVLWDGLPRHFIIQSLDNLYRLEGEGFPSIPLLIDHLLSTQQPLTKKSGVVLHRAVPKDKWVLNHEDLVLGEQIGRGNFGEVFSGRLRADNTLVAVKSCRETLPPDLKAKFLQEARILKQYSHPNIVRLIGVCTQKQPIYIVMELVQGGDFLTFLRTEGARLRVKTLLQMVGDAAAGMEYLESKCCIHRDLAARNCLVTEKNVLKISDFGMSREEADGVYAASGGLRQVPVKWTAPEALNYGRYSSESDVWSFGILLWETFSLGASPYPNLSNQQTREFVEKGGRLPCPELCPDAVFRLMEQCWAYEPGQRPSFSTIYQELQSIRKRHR

FGFR3 = FGFR3 (UniProt P22607); assay: as above
Hck = Hck (UniProt P08631); assay: as above
Chain of Hck (P08631 whole entry, looked up): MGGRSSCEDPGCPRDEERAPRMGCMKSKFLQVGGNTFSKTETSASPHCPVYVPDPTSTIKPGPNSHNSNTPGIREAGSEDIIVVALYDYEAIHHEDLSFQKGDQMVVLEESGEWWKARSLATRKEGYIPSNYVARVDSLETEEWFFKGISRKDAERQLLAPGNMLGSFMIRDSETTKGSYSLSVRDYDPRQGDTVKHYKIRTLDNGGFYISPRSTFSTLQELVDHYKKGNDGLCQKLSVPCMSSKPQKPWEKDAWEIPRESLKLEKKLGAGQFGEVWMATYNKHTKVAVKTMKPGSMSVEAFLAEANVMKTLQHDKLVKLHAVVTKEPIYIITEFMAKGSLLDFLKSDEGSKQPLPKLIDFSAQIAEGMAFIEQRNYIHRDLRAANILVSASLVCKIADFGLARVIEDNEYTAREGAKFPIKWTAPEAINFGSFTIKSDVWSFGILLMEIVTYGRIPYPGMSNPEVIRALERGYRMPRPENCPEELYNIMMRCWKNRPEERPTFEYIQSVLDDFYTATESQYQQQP

EPHB2 = EPHB2 (UniProt P29323); assay: as above
Chain of EPHB2 (P29323 whole entry, looked up): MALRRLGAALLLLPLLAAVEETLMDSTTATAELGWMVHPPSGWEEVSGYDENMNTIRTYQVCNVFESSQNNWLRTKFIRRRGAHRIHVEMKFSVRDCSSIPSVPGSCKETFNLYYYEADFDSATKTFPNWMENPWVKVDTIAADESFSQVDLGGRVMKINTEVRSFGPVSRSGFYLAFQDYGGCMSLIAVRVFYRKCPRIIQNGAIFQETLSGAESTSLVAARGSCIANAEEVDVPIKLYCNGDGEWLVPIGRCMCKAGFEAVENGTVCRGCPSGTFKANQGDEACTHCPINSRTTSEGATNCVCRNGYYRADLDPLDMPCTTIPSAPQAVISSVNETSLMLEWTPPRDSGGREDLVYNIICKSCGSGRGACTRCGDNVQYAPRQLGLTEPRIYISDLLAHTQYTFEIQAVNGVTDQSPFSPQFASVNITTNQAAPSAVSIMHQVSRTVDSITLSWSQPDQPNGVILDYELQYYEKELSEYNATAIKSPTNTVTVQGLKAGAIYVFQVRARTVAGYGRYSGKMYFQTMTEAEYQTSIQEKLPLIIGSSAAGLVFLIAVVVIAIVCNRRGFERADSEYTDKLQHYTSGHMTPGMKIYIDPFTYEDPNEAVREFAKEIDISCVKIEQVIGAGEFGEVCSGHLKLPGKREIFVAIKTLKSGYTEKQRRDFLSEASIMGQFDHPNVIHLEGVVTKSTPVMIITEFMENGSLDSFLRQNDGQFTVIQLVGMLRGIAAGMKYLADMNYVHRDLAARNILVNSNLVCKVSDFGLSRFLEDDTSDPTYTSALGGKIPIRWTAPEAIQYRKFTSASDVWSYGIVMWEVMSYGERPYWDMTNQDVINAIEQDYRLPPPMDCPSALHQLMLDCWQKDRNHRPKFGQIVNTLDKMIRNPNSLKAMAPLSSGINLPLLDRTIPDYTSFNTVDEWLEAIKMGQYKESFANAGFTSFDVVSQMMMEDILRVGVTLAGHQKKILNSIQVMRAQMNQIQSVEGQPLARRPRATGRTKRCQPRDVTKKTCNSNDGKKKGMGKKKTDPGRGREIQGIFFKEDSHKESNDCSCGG

c-Abl (mouse) = assay: as above
FGFR1 = FGFR1 (UniProt P11362); assay: as above
Chain of FGFR1 (P11362 whole entry, looked up): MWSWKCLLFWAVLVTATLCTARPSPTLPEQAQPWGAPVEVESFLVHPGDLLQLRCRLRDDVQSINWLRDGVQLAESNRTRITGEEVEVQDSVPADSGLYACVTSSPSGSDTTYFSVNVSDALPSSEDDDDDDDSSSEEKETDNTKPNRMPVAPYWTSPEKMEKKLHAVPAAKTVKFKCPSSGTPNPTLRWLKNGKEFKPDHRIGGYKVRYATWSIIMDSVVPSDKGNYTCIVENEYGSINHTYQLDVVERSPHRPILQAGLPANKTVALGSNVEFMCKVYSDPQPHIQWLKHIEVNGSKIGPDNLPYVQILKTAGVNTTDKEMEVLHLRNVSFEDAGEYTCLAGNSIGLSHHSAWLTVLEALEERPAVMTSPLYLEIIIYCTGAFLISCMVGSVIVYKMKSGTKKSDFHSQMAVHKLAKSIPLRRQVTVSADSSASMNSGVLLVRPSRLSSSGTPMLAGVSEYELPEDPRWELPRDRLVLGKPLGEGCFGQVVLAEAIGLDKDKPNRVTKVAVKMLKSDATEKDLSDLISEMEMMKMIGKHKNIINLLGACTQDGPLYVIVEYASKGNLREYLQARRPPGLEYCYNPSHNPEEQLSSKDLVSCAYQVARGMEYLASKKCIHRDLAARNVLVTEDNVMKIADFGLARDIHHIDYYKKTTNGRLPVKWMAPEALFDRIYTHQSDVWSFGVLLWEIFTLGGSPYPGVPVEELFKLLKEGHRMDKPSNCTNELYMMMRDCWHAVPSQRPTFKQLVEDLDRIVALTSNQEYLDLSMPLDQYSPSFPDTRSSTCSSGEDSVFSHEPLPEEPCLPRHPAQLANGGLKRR

Fer (mouse) = assay: as above
AncSZ = assay: as above
MERTK = MERTK (UniProt Q12866); assay: as above
Jak2 = Jak2 (UniProt O60674); assay: as above
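Wherever SH2 binding enrichment of the phosphorylated peptide, bacterial display is given: peptide library displayed on the E. coli surface as eCPX fusions, selected cells deep-sequenced, score is each peptide's frequency after selection divided by its frequency in the input.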
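Wherever phosphorylation enrichment, bacterial display is given: 11-residue human phosphosite peptides and single-mutation variants displayed on the E. coli surface, counted by deep sequencing, each peptide's frequency after selection divided by its frequency in the unselected input library; frequency after pTyr selection over input frequency; kinase dosed for 20-30% of maximal phosphorylation in three min.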

Chain of Grb2 SH2 (P62993 whole entry, looked up): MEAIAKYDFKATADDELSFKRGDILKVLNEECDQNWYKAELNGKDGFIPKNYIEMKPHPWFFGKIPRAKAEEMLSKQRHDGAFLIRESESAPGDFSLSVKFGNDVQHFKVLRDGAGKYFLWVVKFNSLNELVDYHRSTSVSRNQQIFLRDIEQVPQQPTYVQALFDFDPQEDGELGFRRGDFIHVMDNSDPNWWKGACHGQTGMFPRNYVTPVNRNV

Sequence | SH2 binding enrichment (c-Src SH2) | SH2 binding enrichment (Grb2 SH2) | SH2 binding enrichment (SHP2-C SH2) | phosphorylation enrichment (Fyn) | phosphorylation enrichment (EPHB1) | phosphorylation enrichment (c-Src) | phosphorylation enrichment (Fes) | phosphorylation enrichment (FGFR3) | phosphorylation enrichment (Hck) | phosphorylation enrichment (EPHB2) | phosphorylation enrichment (c-Abl (mouse)) | phosphorylation enrichment (FGFR1) | phosphorylation enrichment (Fer (mouse)) | phosphorylation enrichment (AncSZ) | phosphorylation enrichment (MERTK) | phosphorylation enrichment (Jak2)
SSDKVYAHQMD [MLH1_Y379_V384D] | 0.576 | 0.729 | 0.552 | 0.493 | 0.537 | 0.491 | 0.708 | 0.52 | 0.419 | 0.502 | 0.442 | 0.452 | 0.395 | 0.611 | 0.408 | 0.497
QKINKYLTVPA [SLC9A1_Y683_N682K] | 0.607 | 0.958 | 0.813 | 0.461 | 0.282 | 0.762 | 0.625 | 0.854 | 0.356 | 0.67 | 0.462 | 0.659 | 0.567 | 1.77 | 0.52 | 0.588
AIMSFYAALIN [RYR1_Y2426_D2431N] | 0.785 | 0.996 | 1.18 | 0.508 | 1.14 | 0.497 | 1.3 | 0.772 | 0.764 | 0.991 | 1 | 0.575 | 0.672 | 1.13 | 1.09 | 1.06
QNTADYFDLFG [PTPN11_Y62_G60A_YF] | 0.558 | 0.924 | 0.564 | 1.32 | 15.8 | 0.693 | 1.53 | 16.9 | 0.722 | 13.8 | 1.13 | 17.9 | 0.951 | 5.82 | 0.691 | 6.89
SDGHEYIYVDP [PDGFRB_Y579] | 0.557 | 0.779 | 0.662 | 1.07 | 2.17 | 2 | 0.988 | 5.43 | 1.2 | 1.72 | 1.6 | 8.64 | 1.66 | 3.82 | 0.92 | 1.62
GRRNTCFASIA [ACADM_Y352_Y352C_YF] | 0.529 | 0.842 | 0.565 | 0.401 | 0.383 | 0.391 | 0.691 | 0.405 | 0.365 | 0.348 | 0.556 | 0.377 | 0.424 | 0.665 | 0.413 | 0.711
FGHTFYNQAIM [MCCC2_Y196_R193H] | 0.735 | 1.18 | 1.01 | 0.465 | 0.404 | 0.455 | 0.945 | 0.556 | 0.41 | 0.447 | 0.527 | 0.555 | 0.461 | 0.715 | 0.445 | 0.856
KKCTRYIDCAL [ASPA_Y64_D68A] | 0.709 | 0.836 | 0.806 | 0.336 | 0.374 | 0.371 | 0.755 | 0.568 | 0.356 | 0.394 | 0.55 | 0.394 | 0.418 | 0.684 | 0.338 | 0.595
FFIMMYTGSNV [DNAJC13_Y1131] | 0.508 | 0.9 | 0.732 | 0.433 | 0.681 | 0.4 | 1.29 | 0.782 | 0.505 | 0.664 | 0.779 | 0.619 | 0.589 | 1.3 | 0.477 | 1.06
QHVPDYRQNVY [PCDHGA1_Y890] | 0.483 | 0.886 | 0.638 | 0.673 | 0.544 | 0.723 | 0.829 | 0.626 | 0.665 | 0.563 | 0.66 | 0.497 | 0.517 | 0.742 | 0.478 | 0.76
SNKLYYQLEQE [PDPR_Y110] | 2.13 | 1.17 | 0.725 | 1.52 | 0.903 | 2.36 | 1.19 | 4.95 | 0.922 | 0.761 | 1.11 | 5.94 | 0.601 | 1.37 | 3.9 | 1.27
SENYTYIWWLN [PSG4_Y271_K267E] | 0.399 | 0.694 | 0.636 | 0.403 | 1.53 | 0.362 | 1.33 | 1.82 | 0.485 | 1.24 | 0.829 | 1.67 | 0.694 | 1.27 | 0.605 | 1.27
SHLEDYPFNAE [AKR1B10_Y310] | 0.404 | 0.928 | 0.573 | 0.517 | 0.568 | 0.396 | 1.14 | 0.771 | 0.504 | 0.511 | 0.713 | 0.489 | 0.594 | 1.01 | 0.413 | 1.03
APIEDYGGGGG [B4GALT6_Y382] | 0.501 | 0.702 | 0.627 | 0.566 | 0.649 | 0.449 | 0.965 | 0.697 | 0.509 | 0.599 | 0.661 | 0.523 | 0.505 | 0.872 | 0.461 | 0.794
TENAGYYFRIS | 0.736 | 0.574 | 0.801 | 0.477 | 0.588 | 0.41 | 1.75 | 0.816 | 0.475 | 0.576 | 0.763 | 0.575 | 0.453 | 1.44 | 0.433 | 1.71
QKNVSYVSRVS [TASOR_Y1043_T1046R] | 0.369 | 0.853 | 1.21 | 0.438 | 0.683 | 0.457 | 0.739 | 0.894 | 0.477 | 0.564 | 0.547 | 0.782 | 0.764 | 1.2 | 0.537 | 0.69
